The labels stand for the following.
B1: BPC3214 (bispecific antibody, human IgG1, kappa)
heavy: not shown
light: DIQMTQSPSSLSASVGDRVTITCRSSQNIVHINGNTYLEWYQQKPGKAPKLLIYKISDRFSGVPSRFSGSGSGTDFTLTISSLQPEDFATYYCFQGSHVPWTFGQGTKLEIKRTVAAPSVFIFPPSDEQLKSGTASVVCLLNNFYPREAKVQWKVDNALQSGNSQESVTEQDSKDSTYSLSSTLTLSKADYEKHKVYACEVTHQGLSSPVTKSFNRGEC
notes: mAbdAb with the re-humanised light chain P0
B2: A1D98GluL1 (antibody, human IgG1, kappa, V domains shown)
VH: QVQLVQSGAEVKKPGSSVKVSCKASGFYIKDTYMHWVRQAPGQGLEWMGTIDPANGNTKYVPKFQGRVTITADESTSTAYMELSSLRSEDTAVYYCARSIYEDYHYDDYYAMDYWGQGTLVTVSS
VL: DIVMTQSPLSLPVTPGEPASISCRSSQNIVHINGNTYLEWYLQKPGQSPRLLIYKISDRFSGVPDRFSGSGSGTDFTLKISRVEADDVGIYYCFQGSHVPWTFGQGTKLEIKR
notes: CDRH3 variant of A1L1
B3: A1Y97PheL1 (antibody, human IgG1, kappa, V domains shown)
VH: B2 VH with Y101F, E102D
VL: B2 VL
notes: CDRH3 variant of A1L1
B4: A1H100A GlnL1 (antibody, human IgG1, kappa, V domains shown)
VH: B2 VH with E102D, H105Q
VL: B2 VL
notes: CDRH3 variant of A1L1
B5: A1H100A SerL1 (antibody, human IgG1, kappa, V domains shown)
VH: B2 VH with E102D, H105S
VL: B2 VL
notes: CDRH3 variant of A1L1
B6: A1H100A ArgL1 (antibody, human IgG1, kappa, V domains shown)
VH: B2 VH with E102D, H105R
VL: B2 VL
notes: CDRH3 variant of A1L1
B7: A1H100A ThrL1 (antibody, human IgG1, kappa, V domains shown)
VH: B2 VH with E102D, H105T
VL: B2 VL
notes: CDRH3 variant of A1L1
B8: A1H100A ValL1 (antibody, human IgG1, kappa, V domains shown)
VH: B2 VH with E102D, H105V
VL: B2 VL
notes: CDRH3 variant of A1L1
B9: A1I96ValL1 (antibody, human IgG1, kappa, V domains shown)
VH: B2 VH with I100V, E102D
VL: B2 VL
notes: CDRH3 variant of A1L1
B10: A1H100A GluL1 (antibody, human IgG1, kappa, V domains shown)
VH: B2 VH with E102D, H105E
VL: B2 VL
notes: CDRH3 variant of A1L1
B11: A1S95TrpL1 (antibody, human IgG1, kappa, V domains shown)
VH: B2 VH with S99W, E102D
VL: B2 VL
notes: CDRH3 variant of A1L1
B12: A1H100A AlaL1 (antibody, human IgG1, kappa, V domains shown)
VH: B2 VH with E102D, H105A
VL: B2 VL
notes: CDRH3 variant of A1L1
B13: BPC1090 (bispecific antibody, human IgG1, kappa)
heavy: not shown
light: DIVMTQSPLSLPVTPGEPASISCRSSQNIVHINGNTYLEWYLQKPGQSPRLLIYKISDRFSGVPDRFSGSGSGTDFTLKISRVEADDVGIYYCFQGSHVPWTFGQGTKLEIKRTVAAPSVFIFPPSDEQLKSGTASVVCLLNNFYPREAKVQWKVDNALQSGNSQESVTEQDSKDSTYSLSSTLTLSKADYEKHKVYACEVTHQGLSSPVTKSFNRGEC
notes: mAbdAb; dAb DOM9-155-154 with Kabat 89 G; also called 829H-(TVAAPS)2GS-154 (89G)
B14: BPC1117 (bispecific antibody, human IgG1, kappa)
heavy: not shown
light: B13 light
notes: mAbdAb; dAb Kabat 89 I; also called 829H-(TVAAPS)2GS-154 (89I)
B15: BPC1109 (bispecific antibody, human IgG1, kappa)
heavy: not shown
light: B13 light
notes: mAbdAb; dAb Kabat 89 R; also called 829H-(TVAAPS)2GS-154 (89R)
B16: BPC1116 (bispecific antibody, human IgG1, kappa)
heavy: not shown
light: B13 light
notes: mAbdAb; dAb Kabat 89 V; also called 829H-(TVAAPS)2GS-154 (89V)
B17: BPC1111 (bispecific antibody, human IgG1, kappa)
heavy: not shown
light: B13 light
notes: mAbdAb; dAb Kabat 89 E; also called 829H-(TVAAPS)2GS-154 (89E)
B18: BPC1092 (bispecific antibody, human IgG1, kappa)
heavy: not shown
light: B13 light
notes: mAbdAb; dAb Kabat 89 H; also called 829H-(TVAAPS)2GS-154 (89H)
B19: BPC1094 (bispecific antibody, human IgG1, kappa)
heavy: not shown
light: B13 light
notes: mAbdAb; dAb Kabat 89 A; also called 829H-(TVAAPS)2GS-154 (89A)
B20: BPC1118 (bispecific antibody, human IgG1, kappa)
heavy: not shown
light: B13 light
notes: mAbdAb; dAb Kabat 89 F; also called 829H-(TVAAPS)2GS-154 (89F)
B21: BPC1095 (bispecific antibody, human IgG1, kappa)
heavy: not shown
light: B13 light
notes: mAbdAb; dAb Kabat 89 T; also called 829H-(TVAAPS)2GS-154 (89T)
B22: BPC1114 (bispecific antibody, human IgG1, kappa)
heavy: not shown
light: B13 light
notes: mAbdAb; dAb Kabat 89 N; also called 829H-(TVAAPS)2GS-154 (89N)
B23: BPC1108 (bispecific antibody, human IgG1, kappa)
heavy: not shown
light: B13 light
notes: mAbdAb; dAb Kabat 89 C; also called 829H-(TVAAPS)2GS-154 (89C)
B24: BPC1110 (bispecific antibody, human IgG1, kappa)
heavy: not shown
light: B13 light
notes: mAbdAb; dAb Kabat 89 W; also called 829H-(TVAAPS)2GS-154 (89W)
B25: BPC1091 (bispecific antibody, human IgG1, kappa)
heavy: not shown
light: B13 light
notes: mAbdAb; dAb Kabat 89 S; also called 829H-(TVAAPS)2GS-154 (89S)

Numbering of substitutions follows the chain as printed.

For one assay, the target named is T1, human IL-13 (recombinant E. coli-expressed) (human, UniProt P35225 35-146).
T1 construct: also called hIL-13
T1 sequence (P35225 other isoform, or with tags, fused parts or gaps limits assumed): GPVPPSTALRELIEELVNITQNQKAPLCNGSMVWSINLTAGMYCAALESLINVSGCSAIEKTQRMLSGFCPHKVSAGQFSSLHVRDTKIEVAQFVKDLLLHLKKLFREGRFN
The assay can be described thus: Biacore T100 SPR, Protein A capture (CM5), human IL13 analyte, 1:1 fit. On the procedure:
(§1) Protein A was immobilised on a CM5 chip by primary amine coupling; this surface was used as a capture surface for the antibody molecules to be tested. […] All binding curves were double referenced with a 0 nM injection (i.e. buffer alone).
(§2) Regeneration of the Protein A surface was with 50 mM NaOH. The assay was run at 25° C. using HBS-EP as running buffer. The data was fitted to 1:1 model inherent to the Biacore T100 analysis software.
(SPR reads the build-up and loss of mass on a sensor chip optically.)
The Kd is the equilibrium constant for the complex coming apart. What is called koff is the first-order rate constant of dissociation. One may read the kon as a measure of how fast the partners come together. As to B1, the Kd was determined as 0.093 nM, the koff turned out to be 7.18e-05 s⁻¹ and the kon stood at 775000 M⁻¹ s⁻¹.

A further assay concerns the target T2, cyno IL-13 (recombinant E. coli-expressed) (cynomolgus, UniProt Q0PW92 21-132).
T2 construct: also called cynomolgus IL-13
The assay can be described thus: Biacore T100 SPR, Protein A capture (CM5), cyno IL13 analyte, 1:1 fit; 'Impossible off-rates'. The method, then: as §1, §2
Take B1: the Kd was less than 0.0311 nM, the koff was less than 1e-05 s⁻¹ and the kon turned out to be 321000 M⁻¹ s⁻¹.

Another assay has as its target T1, human IL-13 (recombinant E. …). The assay can be described thus: ProteOn XPR36 SPR, mAb (supernatant) captured on anti-human IgG, IL13 analyte, 1:1 fit. On the procedure: The initial screen of CDRH3 mutants was carried out on the ProteOn XPR36 (Biorad). […] 3M MgCl₂ was used to regenerate the capture surface, removing the bound CDRH3 mutant antibodies ready for another cycle of capture and analyte injection. The data was fitted to the 1:1 model using the software inherent to the machine.
Regarding B2, the Kd is 0.873 nM.
As to B3, the Kd came to 0.683 nM.
B4: the Kd worked out at 0.195 nM.
The same measure, in the same setting: for B5 the value was 0.131 nM; for B6, 0.256 nM; for B7, 0.158 nM.
For the molecule B8, the dissociation constant Kd was 0.112 nM.
Consider B9, for which the Kd amounted to 0.395 nM.
Regarding B10, the dissociation constant (Kd) turned out to be 0.11 nM.

Another assay has the same target. The assay can be described thus: Biacore T100 SPR, mAb (supernatant) captured on anti-human IgG, IL13 analyte, 1:1 fit. An excerpt: Table 1 details the overall affinities (equilibrium dissociation constant KD) for the selected constructs from the ProteOn screen and the T100 run
Regarding B2, the Kd was 0.779 nM.
Same read-out and setting: the same measure for B3: 0.618 nM.
Turning to B4, the Kd came out at 0.278 nM.
With B5, the dissociation constant Kd stood at 0.174 nM.
Consider B6, for which the Kd was found to be 0.307 nM.
Still for that read-out and setting: the same measure for B11: 0.216 nM; for B7: 0.211 nM.
Same read-out and setting: for B8 the value was 0.152 nM.
B9: the Kd stood at 0.696 nM.
In the case of B12, the Kd was 0.172 nM.
Regarding B10, the equilibrium dissociation constant (Kd) came to 0.195 nM.

Another assay deals with T3, human IL-4 (recombinant E. coli-expressed) (human, UniProt P05112 25-153).
T3 sequence (looked up): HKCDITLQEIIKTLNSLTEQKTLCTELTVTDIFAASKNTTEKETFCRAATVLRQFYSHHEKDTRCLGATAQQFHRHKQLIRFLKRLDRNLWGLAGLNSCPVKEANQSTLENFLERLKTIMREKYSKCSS
The assay can be described thus: Biacore T100 SPR, Protein A capture (CM5), human IL4 analyte, 1:1 fit. The method, then: Protein A was immobilised on a CM5 chip by primary amine coupling; this surface was used as a capture surface for the antibody molecules to be tested.
All binding curves were double referenced with a 0 nM injection (i.e. buffer alone). Regeneration of the Protein A surface was with 50 mM NaOH. The assay was run at 25° C. using HBS-EP as running buffer. The data was fitted to 1:1 model inherent to the Biacore T100 analysis software.
In the case of B13, the dissociation constant (Kd) turned out to be 0.096 nM, the dissociation rate constant (koff) worked out at 0.000416 s⁻¹ and the association rate constant (kon) is 4.34e+06 M⁻¹ s⁻¹.
Take B14: the Kd stood at 0.231 nM, the koff came out at 0.000913 s⁻¹ and the kon came out at 3.95e+06 M⁻¹ s⁻¹.
As to B15, the Kd stood at 147 nM, the koff turned out to be 0.177 s⁻¹ and the kon came to 1.2e+06 M⁻¹ s⁻¹.
In the same order, the values of B16 are 0.402 nM, 0.00274 s⁻¹ and 6.82e+06 M⁻¹ s⁻¹.
With B17, the dissociation constant (Kd) is 0.037 nM, the koff came out at 0.000111 s⁻¹ and the kon was 2.98e+06 M⁻¹ s⁻¹.
The like results for B18 were, in that order, 1.71 nM, 0.00389 s⁻¹ and 2.27e+06 M⁻¹ s⁻¹.
As for B19, the Kd was 2.08 nM, the dissociation rate constant (koff) turned out to be 0.00304 s⁻¹ and the kon was 1.46e+06 M⁻¹ s⁻¹.
B20: the Kd turned out to be 0.405 nM, the koff was found to be 0.00258 s⁻¹ and the kon was determined as 6.39e+06 M⁻¹ s⁻¹.
For the molecule B21, the Kd stood at 4.69 nM, the koff is 0.0318 s⁻¹ and the kon came to 6.78e+06 M⁻¹ s⁻¹.
Regarding B22, the Kd came to 0.656 nM, the koff amounted to 0.00255 s⁻¹ and the association rate constant (kon) came to 3.89e+06 M⁻¹ s⁻¹.
Turning to B23, the dissociation constant (Kd) came out at 0.281 nM, the koff stood at 0.00123 s⁻¹ and the on-rate constant (kon) came to 4.38e+06 M⁻¹ s⁻¹.
For B24, the equilibrium dissociation constant (Kd) stood at 1.63 nM, the koff is 0.00173 s⁻¹ and the kon came out at 1.07e+06 M⁻¹ s⁻¹.
As for B25, the Kd is 0.168 nM, the koff was 0.00102 s⁻¹ and the association rate constant (kon) was 6.05e+06 M⁻¹ s⁻¹.

Another assay addresses T3, human IL-4 (recombinant E. …). The assay is described as above. The source holds these as a separate data set. The method, then: Purified mAbs and mAbdAb constructs were tested in a BIAcore assay to determine whether the mutation of position 89 had any effect on the binding of the dAb to IL-4.
Protein A was immobilised on a CM5 chip by primary amine coupling; this surface was used as a capture surface for the antibody molecules to be tested. […] Regeneration of the […] surface was achieved using 50 mM NaOH. The assay was run at 25° C. using HBS-EP as running buffer. The data was fitted to 1:1 model inherent to the Biacore T100 analysis software.
In the case of B13, the Kd came to 0.152 nM, the off-rate constant (koff) stood at 0.000455 s⁻¹ and the kon was found to be 3e+06 M⁻¹ s⁻¹.
On to B17, for which the Kd turned out to be 0.031 nM, the koff came to 0.000104 s⁻¹ and the association rate constant (kon) worked out at 3.37e+06 M⁻¹ s⁻¹.
Take B18: the Kd amounted to 1.79 nM, the koff came to 0.00534 s⁻¹ and the on-rate (kon) was 2.98e+06 M⁻¹ s⁻¹.
In the same order, the values of B19 are 1.95 nM, 0.00373 s⁻¹ and 1.91e+06 M⁻¹ s⁻¹.
For B21, the Kd amounted to 5.76 nM, the off-rate constant (koff) was determined as 0.0144 s⁻¹ and the on-rate (kon) was found to be 2.5e+06 M⁻¹ s⁻¹.
Consider B25, for which the Kd is 0.244 nM, the off-rate (koff) was 0.000966 s⁻¹ and the on-rate (kon) stood at 3.96e+06 M⁻¹ s⁻¹.

The record behind these values is patent publication US20120082682A1 (GlaxoSmithKline, published 2012).
